Numbering of substitutions follows the chain as printed.
B1: 376_H11 (antibody, V domains shown)
VH: EVQLLESGGGLVQPGGSLRLSCAASGFTFDSYSMNWVRQAPGKGLEWVSNINYNGGYTGYADSVKGRFTISRDNSKNTLYLQMNSLRAEDTAVYYCARGANWHDTALDYWGQGTLVTVSS
VL: DIQMTQSPSSLSASVGDRVTITCRASQSISRYLNWYQQKPGKAPKLLIYAVTSLASGVPSRFSGSGSGTDFTLTISSLQPEDFATYYCQQSYESPLTFGGGTKVEIK
notes: VH/VL only
B2: 365_F01 (antibody, V domains shown)
VH: B1 VH with N50G, G55S, T58K, G99S, A106H
VL: B1 VL with S30V, R31S, L47V, V51A, S94L
notes: VH/VL only
B3: 366_H07 (antibody, V domains shown)
VH: B1 VH with D30S, S33G, N35H, N50G, G59S, G99S
VL: B1 VL with S30I, R31S, L33V, L47V, L54R, S94N
notes: VH/VL only
B4: 365_C12 (antibody, V domains shown)
VH: B1 VH with D30S, S33G, S49A, N50G, G55S, T58K, G59S, G99S
VL: B1 VL with S30V, R31S, L33V, L47V, E93D, S94T
notes: VH/VL only
B5: 366_H09 (antibody, V domains shown)
VH: B1 VH with S33G, G55S, T58K, G99S
VL: B1 VL with S30V, R31S, L33V, L47V, V51T, L54R, E93S
notes: VH/VL only
B6: 366_G05 (antibody, V domains shown)
VH: B1 VH with S33G, G59S, G99S
VL: B1 VL with S30I, R31S, L33V, L47V, V51A, L54R, S94N
notes: VH/VL only
B7: 366_A07 (antibody, V domains shown)
VH: B1 VH with D30S, S33G, N35H, S49A, N50S, G99S
VL: B1 VL with S30V, R31S, L33V, L47V, V51A, L54R, A55H
notes: VH/VL only
B8: 367_B02 (antibody, V domains shown)
VH: B1 VH with S33G, N50S, G59S, G99S
VL: not shown
notes: VH/VL only
B9: 365_H03 (antibody, V domains shown)
VH: B1 VH with S31D, S33G, S49A, N50G, T58K, G59S, G99S
VL: B1 VL with S30L, R31S, L33V, L47V, V51A, A55H, E93N, S94N
notes: VH/VL only
B10: 365_B01 (antibody, V domains shown)
VH: B1 VH with S33G, N35H, S49A, N50S, G55S, G59S, G99S
VL: B1 VL with R31S, L33V, L47V, V51A, L54R
notes: VH/VL only
B11: 365_B06 (antibody, V domains shown)
VH: B1 VH with S33G, N35H, T58K, G59S, G99S
VL: B1 VL with S30L, R31T, L33V, V51T, E93D, S94L
notes: VH/VL only
B12: 365_C01 (antibody, V domains shown)
VH: B1 VH with S33G, N50S, G55S, T58K, G59S, G99S, A106H
VL: B1 VL with S30V, R31S, L47V, L54R
notes: VH/VL only
B13: 366_E10 (antibody, V domains shown)
VH: B1 VH with S33G, N50G, T58K, G99S, A106H
VL: B1 VL with S30L, R31S, L33V, L47V, V51A, L54R, A55H, E93S, S94L
notes: VH/VL only
B14: 370_A09 (antibody, V domains shown)
VH: B1 VH with D30S, S49A, N50G, G99S, N101T, A106H
VL: B1 VL with S30L, R31T, L47V, V51A, L54R, E93D, S94T
notes: VH/VL only
B15: 365_D05 (antibody, V domains shown)
VH: B1 VH with S49A, N50G, G59S, G99S, N101T, A106H
VL: B1 VL with S30L, R31T, L33V, V51A, L54R, E93N
notes: VH/VL only
B16: 365_F04 (antibody, V domains shown)
VH: B1 VH with D30S, S33G, S49A, N50G, G99S, N101T, A106H
VL: B1 VL with S30V, R31T, L33V, V51A, L54R, E93D, S94T
notes: VH/VL only
B17: 365_F07 (antibody, V domains shown)
VH: B1 VH with D30S, T58K, G59S, G99S, N101T
VL: B1 VL with S30L, R31S, L33V, L47V, V51A, L54R, E93D, S94L
notes: VH/VL only
B18: 365_F08 (antibody, V domains shown)
VH: B1 VH with S31D, S33G, S49A, G59S, G99S, N101T, A106H
VL: B1 VL with S30L, R31S, L33V, V51A, L54R, A55H, E93S, S94L
notes: VH/VL only
B19: 365_A01 (antibody, V domains shown)
VH: B1 VH with D30S, S31D, S33G, S49A, N50G, G59S, G99S, N101T, A106H
VL: B1 VL with S30L, R31T, L33V, L47V, V51T, E93S, S94T
notes: VH/VL only
B20: 365_A07 (antibody, V domains shown)
VH: B1 VH with D30S, S33G, S49A, N50G, G55S, T58K, G99S, N101T, A106H
VL: B1 VL with S30V, R31S, V51A, L54R, E93N, S94L
notes: VH/VL only
B21: 365_C07 (antibody, V domains shown)
VH: B1 VH with D30S, S31D, S33G, S49A, N50S, G59S, G99S, N101T
VL: B1 VL with S30V, R31S, L33V, V51A, L54R, E93D, S94T
notes: VH/VL only
B22: 365_B03 (antibody, V domains shown)
VH: B1 VH with D30S, S49A, N50G, G99S, N101T, A106H
VL: B1 VL with S30V, R31S, V51A, L54R, S94N
notes: VH/VL only
B23: 365_C09 (antibody, V domains shown)
VH: B1 VH with D30S, S31D, S33G, N50G, T58K, G59S, G99S, N101T, A106H
VL: B1 VL with S30V, R31S, L33V, V51A, L54R, E93D, S94T
notes: VH/VL only
B24: 365_E02 (antibody, V domains shown)
VH: B1 VH with D30S, S49A, G59S, R98K, G99S, N101T, A106H
VL: B1 VL with S30I, R31S, V51A, L54R, S94N
notes: VH/VL only
B25: 365_A10 (antibody, V domains shown)
VH: B1 VH with D30S, S33G, N35H, S49A, N50G, G55S, G59S, G99S, N101T, A106H
VL: B1 VL with S30L, R31T, L47V, E93D
notes: VH/VL only
B26: 365_B09 (antibody, V domains shown)
VH: B1 VH with S49A, N50G, G55S, T58K, G59S, G99S, N101T, A106H
VL: B1 VL with S30L, V51A, A55H, E93D, S94N
notes: VH/VL only

Target: T1, Human ACVR2A (human, UniProt P27037 20-135, limits assumed)
T1 construct: also called activin receptor, type II A
Test: ELISA
How it was run: (§1)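 Binding signal was read by ELISA after ACVR2A-specific monoclonal antibodies were tested against human ACVR2A and mouse ACVR2A, with human Fc as the negative control.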
Also: test concentration or dose not given here.

T1 sequence (P27037 20-135 limits assumed): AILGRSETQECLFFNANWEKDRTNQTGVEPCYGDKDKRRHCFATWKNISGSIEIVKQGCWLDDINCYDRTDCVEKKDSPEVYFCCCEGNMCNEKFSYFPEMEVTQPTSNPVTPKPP

optical density	Binder
3.29 OD	B1
2.51 OD	B2
2.53 OD	B3
1.92 OD	B4
2.1 OD	B5
2.21 OD	B6
2.42 OD	B7
2.29 OD	B8
2.32 OD	B9
2.39 OD	B10
2.25 OD	B11
2.87 OD	B12
2.35 OD	B13

Target: Mouse ACVR2A (mouse, UniProt P27038 20-135, limits assumed)
Test: ELISA
How it was run: as §1

Sequence of Mouse ACVR2A (P27038 20-135 limits assumed): as the sequence (P27037 20-135 limits assumed) above, with K20R, V73I counted along it

optical density	Binder
3.31 OD	B1
2.47 OD	B2
2.67 OD	B3
2.04 OD	B4
2.44 OD	B5
2.5 OD	B6
2.68 OD	B7
2.42 OD	B8
2.65 OD	B9
2.65 OD	B10
2.42 OD	B11
3.02 OD	B12
2.39 OD	B13

Target: human ACVR2A (human, UniProt P27037 20-135, limits assumed)
Test: ELISA
How it was run: as §1

Sequence of human ACVR2A (P27037 20-135 limits assumed): as the sequence (P27037 20-135 limits assumed) above

optical density	Binder
3.46 OD	B14
2.58 OD	B15
2.26 OD	B16
3.12 OD	B17
2.25 OD	B18
2.77 OD	B19
2.24 OD	B20
1.94 OD	B21
2.65 OD	B22
2.05 OD	B23
2.45 OD	B24
2.19 OD	B25
3.26 OD	B26

Target: mouse ACVR2A (mouse, UniProt P27038 20-135, limits assumed)
Test: ELISA
How it was run: as §1

Sequence of mouse ACVR2A (P27038 20-135 limits assumed): as the sequence (P27037 20-135 limits assumed) above, with K20R, V73I counted along it

optical density	Binder
3.27 OD	B14
2.72 OD	B15
2.51 OD	B16
3.18 OD	B17
2.61 OD	B18
2.9 OD	B19
2.25 OD	B20
1.92 OD	B21
2.53 OD	B22
2.18 OD	B23
2.61 OD	B24
2.49 OD	B25
3.32 OD	B26

Target: T2, biotinylated goat anti-human kappa light chain
T2 construct: Positive control of the ELISA
Test: ELISA; positive control
How it was run: (§2)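 ELISA measured binding of ACVR2A-specific monoclonal antibodies to human and mouse ACVR2A. Biotinylated goat anti-human kappa light chain served as positive control and human Fc as negative control.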

optical density	Binder
3.58 OD	B14
3.51 OD	B15
3.47 OD	B16
3.39 OD	B17
3.63 OD	B18
3.51 OD	B19
3.41 OD	B20
3.17 OD	B21
3.38 OD	B22
3.27 OD	B23
3.5 OD	B24
3.45 OD	B25
3.28 OD	B26

Target: T3, Goat anti-Human Kappa
T3 construct: Positive control; also called biotinylated goat anti-human kappa light chain
Test: ELISA; positive control
How it was run: as §2

optical density	Binder
3.43 OD	B1
3.51 OD	B2
3.6 OD	B3
3.58 OD	B4
3.42 OD	B5
3.26 OD	B6
3.37 OD	B7
3.53 OD	B8
3.27 OD	B9
3.49 OD	B10
3.28 OD	B11
3.63 OD	B12
3.45 OD	B13

Reference: patent US20210380703A1 (RIGEL PHARMACEUTICALS, published 2021)
